Laboratory results taken from patent publication US5733730, “Telomere repeat binding factor and diagnostic and therapeutic use thereof” (The Rockefeller University).

T1: TRF (MTRF12, full length) (Mus musculus, UniProt P70371 P70371:1-421)
T1 sequence: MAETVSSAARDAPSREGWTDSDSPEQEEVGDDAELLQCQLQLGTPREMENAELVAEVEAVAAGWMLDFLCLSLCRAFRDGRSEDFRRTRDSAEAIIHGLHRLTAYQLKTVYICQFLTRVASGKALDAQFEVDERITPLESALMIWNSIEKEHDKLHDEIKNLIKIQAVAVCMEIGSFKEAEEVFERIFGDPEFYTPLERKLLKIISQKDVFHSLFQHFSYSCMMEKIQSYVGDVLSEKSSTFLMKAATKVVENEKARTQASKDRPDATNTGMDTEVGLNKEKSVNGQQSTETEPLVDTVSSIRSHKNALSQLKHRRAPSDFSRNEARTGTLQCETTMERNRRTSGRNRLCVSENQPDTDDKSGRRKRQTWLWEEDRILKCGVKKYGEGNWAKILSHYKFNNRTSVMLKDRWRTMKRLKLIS

T2: TRF purified from HeLa nuclear extract (Homo sapiens, UniProt P54274 SEQ:1-439)
T2 chain: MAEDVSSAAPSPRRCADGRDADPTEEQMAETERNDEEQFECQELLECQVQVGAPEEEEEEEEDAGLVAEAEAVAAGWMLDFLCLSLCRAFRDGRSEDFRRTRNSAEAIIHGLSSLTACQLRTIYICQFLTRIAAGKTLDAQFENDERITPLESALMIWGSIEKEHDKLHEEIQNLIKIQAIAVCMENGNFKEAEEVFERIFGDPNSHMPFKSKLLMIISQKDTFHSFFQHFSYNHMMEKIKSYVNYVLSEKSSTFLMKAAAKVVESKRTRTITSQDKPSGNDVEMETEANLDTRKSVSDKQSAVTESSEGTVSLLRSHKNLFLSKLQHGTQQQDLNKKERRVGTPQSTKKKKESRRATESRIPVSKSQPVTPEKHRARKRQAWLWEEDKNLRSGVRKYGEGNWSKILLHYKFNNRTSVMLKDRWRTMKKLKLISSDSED

B1: (TTAGGG)12 restriction fragment probe (dsDNA)
DNA 1: TTAGGGTTAGGGTTAGGGTTAGGGTTAGGGTTAGGGTTAGGGTTAGGGTTAGGGTTAGGGTTAGGGTTAGGG
DNA 2: CCCTAACCCTAACCCTAACCCTAACCCTAACCCTAACCCTAACCCTAACCCTAACCCTAACCCTAACCCTAA
B2: 145 bp TTAGGG repeat gel-shift probe (dsDNA)
DNA 1: GTACCCGGGGATCGTGACTCTAGAGGGGCCCTAACCCTAACCCTAACCCTAACCCTAACCCTAACCCTAACCCTAACCCTAACCCTAACCCTAACCCTAACCCTAACCCGGGTCGAATTCGATCTCTAGAGTCGACCTGCAGGCATGC
DNA 2: GCATGCCTGCAGGTCGACTCTAGAGATCGAATTCGACCCGGGTTAGGGTTAGGGTTAGGGTTAGGGTTAGGGTTAGGGTTAGGGTTAGGGTTAGGGTTAGGGTTAGGGTTAGGGTTAGGGCCCCTCTAGAGTCACGATCCCCGGGTAC

Tests used:
[1] = target: TRF (HTRF4.1, TRF1) partial ORF from N-terminal XhoI site to stop (Homo sapiens, UniProt P54274 SEQ:45-439); experiment: EMSA; reticulocyte lysate; no complex without TRF cDNA; text of Example 4 prints probe as (TTAGGG)2; settings: tags: His6 (pET28b, Novagen) N-terminal fusion; label: radiolabelled
Excerpt: Proof that the cDNAs encode TRF activity. One of the human cDNAs (HTRF4.1) was used to construct a fusion protein in which part of the TRF open reading frame from the N-terminal Xho I site to the natural termination codon at the Hind III site was inserted into the pET28b His6Tag expression vector from Novagen (Madison, Wis.). This new, chimeric open reading frame contained an initiator ATG codon with "Kozak rules" environment at its 5' end as well as an T7 RNA polymerase promoter sequence upstream. This construct was used for in vitro coupled transcription/translation (using a kit from Promega) resulting in synthetic protein (labelled with […]) with an apparent molecular weight (MW) of 60 kD. The in vitro synthesized protein was used in a gel-shift assay with a double stranded (TTAGGG)_2 repeat probe and shown to form a complex that migrates close to the HeLa TRF gel-shift complex.

[2] = target: T1, TRF (MTRF12, full length); experiment: EMSA; reticulocyte lysate; complex co-migrates with J558 mouse TRF; settings: label: radiolabelled
Excerpt: The mouse cDNA (MTRF12) contained its own initiator codon and was transcribed and translated without further modification using the T3 promoter in its pBluescript vector. Similar to the human cDNA, a ~60 kD protein was synthesized that bound TTAGGG repeats but not TYGGGG or TTAGGC repeats (FIG. 6).

[3] = target: T2, TRF purified from HeLa nuclear extract; experiment: EMSA; column fractions in 100 mM KCl, 20 mM HEPES, 3 mM MgCl2, 20% glycerol, 0.1% NP-40; binding lost when highly purified, rescued by casein; settings: label: radiolabelled
Protocol: TRF was isolated from a total of 9.2×10^11 HeLa Cells, equivalent to 940 liters of culture (in Joklik's Media, supplemented with bovine calf serum, 2 mM L-glutamine, 0.1 mM non-essential amino acids, and penicillin/streptomycin). A nuclear extract containing 4 grams of protein and about 650 pmol of TRF (1 pmol TRF is defined as the amount of protein required to complex 1 pmol of labelled probe), as determined by quantitation using a PhosphoImager, was obtained from the cells and the soluble fraction was then purified over a series of ion exchange and affinity columns, as noted above. For each column, the sample was loaded in buffer containing 100 mM KCl and the flow-through was reloaded. The columns were developed in buffer with increasing potassium chloride salt concentration, with a final stripping of the column with 1M salt. All fractions were dialyzed to 100 mM KCl, 20 mM HEPES, 3 mM MgCl_2, 20% glycerol, and 0.1% NP-40 (nonidet-P40). Activity was determined by gel shift assay using a probe of 145 bp fragment containing (TTAGGG)_2 having the following sequence (SEQ D NO:21): […]

Binder	binding result [1]	binding result [2]	binding result [3]
B1	binds	binds	
B2			binds
